Laboratory results as given in patent US6682911 (GENERAL HOSPITAL, dated 2004).

Biological target: T1, human laminin β1 subunit (human, UniProt P07942 22-1786)
T1 construct: 185 kDa chain from laminin 12 isolated from human placental chorionic villi, reduced and resolved by SDS-PAGE; also called 185 kDa band; 185 kDa chain
Assay: trimer isolated from placenta; non-reducing then reducing SDS-PAGE and peptide sequencing of the chains
Excerpt: Protein sequencing was done according to Aebersold et al. (1987). The complex laminin 5-laminin 7 was run on a polyacrylamide gel in the presence of 2-mercaptoethanol and blotted onto a nitrocellulose membrane (Biorad). The 190 kDa band of β2 and the 165 kDa α3 band were separately excised and digested by protease trypsin. The digested product was separated by HPLC and one fragment was sequenced on an Applied Biosystems sequenator (Applied Biosystems, Foster City, Calif.). The 205 kDa chain contained a sequence identical to human laminin α2, and was thus identified as human laminin α2 subunit. The 185 kDa produced two peptides identical to human β1, and was thus identified as human laminin β1 subunit. The band at 170 kDa contained three sequences not contained in any known laminin chain. A N-terminal sequence of the 170 kDa chain was also determined. In addition, the N-terminal sequence was not identical to any known laminin sequence.

T1 sequence (P07942 22-1786 Q1022R limits assumed): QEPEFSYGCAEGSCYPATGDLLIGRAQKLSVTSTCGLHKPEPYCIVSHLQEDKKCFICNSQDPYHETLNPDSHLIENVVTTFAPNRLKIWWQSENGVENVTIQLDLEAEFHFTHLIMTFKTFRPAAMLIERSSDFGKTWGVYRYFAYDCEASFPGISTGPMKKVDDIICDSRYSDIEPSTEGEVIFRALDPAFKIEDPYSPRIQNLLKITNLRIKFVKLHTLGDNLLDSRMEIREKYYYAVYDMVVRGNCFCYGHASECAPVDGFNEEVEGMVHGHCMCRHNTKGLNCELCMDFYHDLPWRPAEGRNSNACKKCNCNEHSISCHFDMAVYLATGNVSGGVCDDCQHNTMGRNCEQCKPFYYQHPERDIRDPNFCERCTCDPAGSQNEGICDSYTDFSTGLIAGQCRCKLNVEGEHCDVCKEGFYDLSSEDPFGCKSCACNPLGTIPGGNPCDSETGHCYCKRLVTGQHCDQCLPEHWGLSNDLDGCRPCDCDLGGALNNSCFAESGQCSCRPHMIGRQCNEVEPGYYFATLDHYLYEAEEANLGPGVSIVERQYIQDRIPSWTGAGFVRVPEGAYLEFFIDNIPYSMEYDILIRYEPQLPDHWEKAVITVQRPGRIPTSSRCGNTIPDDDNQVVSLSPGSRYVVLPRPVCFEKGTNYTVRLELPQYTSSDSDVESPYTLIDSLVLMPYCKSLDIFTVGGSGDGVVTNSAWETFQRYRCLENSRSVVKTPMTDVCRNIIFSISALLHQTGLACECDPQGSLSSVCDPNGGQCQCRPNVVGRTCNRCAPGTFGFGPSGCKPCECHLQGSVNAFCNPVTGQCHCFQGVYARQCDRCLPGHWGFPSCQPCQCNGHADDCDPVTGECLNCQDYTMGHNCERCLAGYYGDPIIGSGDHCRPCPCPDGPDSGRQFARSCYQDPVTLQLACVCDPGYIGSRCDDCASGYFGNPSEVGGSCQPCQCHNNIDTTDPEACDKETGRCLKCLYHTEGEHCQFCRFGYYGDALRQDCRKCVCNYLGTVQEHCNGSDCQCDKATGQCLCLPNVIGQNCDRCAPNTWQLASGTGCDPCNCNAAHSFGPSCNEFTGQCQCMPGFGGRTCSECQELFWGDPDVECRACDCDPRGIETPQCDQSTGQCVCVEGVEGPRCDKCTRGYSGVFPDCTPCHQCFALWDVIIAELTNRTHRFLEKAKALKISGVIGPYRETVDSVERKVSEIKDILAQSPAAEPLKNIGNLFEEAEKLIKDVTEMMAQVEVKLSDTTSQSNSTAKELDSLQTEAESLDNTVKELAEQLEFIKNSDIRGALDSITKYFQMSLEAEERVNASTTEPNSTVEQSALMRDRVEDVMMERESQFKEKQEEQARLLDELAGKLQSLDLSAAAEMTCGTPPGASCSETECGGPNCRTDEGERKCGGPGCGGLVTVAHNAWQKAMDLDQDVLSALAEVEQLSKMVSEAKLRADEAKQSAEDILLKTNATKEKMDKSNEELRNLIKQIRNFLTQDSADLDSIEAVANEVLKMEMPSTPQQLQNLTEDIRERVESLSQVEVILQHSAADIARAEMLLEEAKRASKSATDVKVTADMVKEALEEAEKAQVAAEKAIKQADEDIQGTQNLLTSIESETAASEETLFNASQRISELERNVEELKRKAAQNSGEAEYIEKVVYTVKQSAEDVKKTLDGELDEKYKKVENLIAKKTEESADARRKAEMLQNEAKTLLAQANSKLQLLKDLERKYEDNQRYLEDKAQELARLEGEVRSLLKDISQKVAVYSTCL

B1: human laminin γ3 subunit (other)
chain: AGMGACYDGAGRPQRCLPVFENAAFGRLAQASHTCGSPPEDFCPHVGAAGAGAHCQRCDAADPQRHHNASYLTDFHSQDESTWWQSPSMAFGVQYPTSVNITLRLGKAYEITYVRLKFHTSRPESFAIYKRSRADGPWEPYQFYSASCQKTYGRPEGQYLRPGEDERVAFCTSEFSDISPLSGGNVAFSTLEGRPSAYNFEESPGLQEWVTSTELLISLDRLNTFGDDIFKDPKVLQSYYYAVSDFSVGGRCKCNGHASECGPDVAGQLACRCQHNTTGTDCERCLPFFQDRPWARGTAEAAHECLPCNCSGRSEECTFDRELFRSTGHGGRCHHCRDHTAGPHCERCQENFYHWDPRMPCQPCDCQSAGSLHLQCDDTGTCACKPTVTGWKCDRCLPGFHSLSEGGCRPCTCNPAGSLDTCDPRSGRCPCKENVEGNLCDRCRPGTFNLQPHNPAGCSSCFCYGHSKVCASTAQFQVHHILSDFHQGAEGWWARSVGGSEHSPQWSPNGVLLSPEDEEELTAPGKFLGDQRFSYGQPLILTFRVPPGDSPLPVQLRLEGTGLALSLRHSSLSGPQDARASQGGRAQVPLQETSEDVAPPLPPFHFQRLLANLTSLRLRVSPGPSPAGPVFLTEVRLTSARPGLSPPASWVEICSCPTGYTGQFCESCAPGYKREMPQGGPYASCVPCTCNQHGTCDPNTGICVCSHHTEGPSCERCLPGFYGNPFAGQADDCQPCPCPGQSACTTIPESGEVVCTHCPPGQRGRRCEVCDDGFFGDPLGLFGHPQPCHQCQCSGNVDPNAVGNCDPLSGHCLRCLHNTTGDHCEHCQEGFYGSALAPRPADKCMPCSCHPQGSVSEQMPCDPVTGQCSCLPHVTARDCSRCYPGFFDLQPGRGCRSCKCHPLGSQEDQCHPKTGQCTCRPGVTGQACDRCQLGFFGSSIKGCRACRCSPLGAASAQCHYNGTCVCRPGFEGYKCDRCHYNFFLTADGTHCQQCPSCYALVKEETAKLKARLTLTEGWLQGSDCGSPWGPLDILLGEAPRGDVYQGHHLLPGAREAFLEQMMGLEGAVKAAREQLQRLNKGARCAQAGSQKTCTQLADLEAVLESSEEEILHAAAILASLEIPQEGPSQPTKWSHLAIEARALARSHRDTATKIAATAWRALLASNTSYALLWNLLEGRVALETQRDLEDRYQEVQAAQKALRTAVAEVLPEAESVLATVQQVGADTAPYLALLASPGALPQKSRAEDLGLKAKALEKTVASWQHMATEAARTLQTAAQATLRQTEPLTMARSRLTATFASQLHQGARAALTQASSSVQAATVTVMGARTLLADLEGMKLQFPRPKDQAALQRKADSVSDRLLADTRKKTKQAERMLGNAAPLSSSAKKKGREAEVLAKDSAKLAKALLRERKQAHRRASRLTSQTQATLQQASQQVLASEARRQELEEAERVGAGLSEMEQQIRESRISLEKDIETLSELLARLGSLDTHQAPAQALNETQWALERLRLQLGSPGSLQRKLSLLEQESQQQELQIQGFESDLAEIRADKQNLEAILHSLPENCASWQ
notes: 170 kDa chain from laminin 12 isolated from human placental chorionic villi, reduced and resolved by SDS-PAGE; also called 170 kDa γ3 chain; 170 kDa band
- binding result: binds
